Data published in paper PMC6450724 (Molecular cell, 2019).
Like-named read-outs stand apart in the source and are kept apart here.

How the values were obtained:
[1] = biological target: DnaC (with DnaB^KAEA and M13 ssDNA) (Escherichia coli, UniProt P0AEF0); assay: coupled pyruvate kinase/lactate dehydrogenase ATPase assay, A340; assay type: biochemical; settings: DnaB K236A/E262A and M13 ssDNA present; 10 mM MgCl2, pH 7.5, 37 °C
[2] = biological target: E. coli DnaB replicative helicase, wild type (E. coli) (UniProt P0ACB0); assay: cryo-EM structure
[3] = biological target: E. coli DnaB replicative helicase, wild type (E. coli) (UniProt P0ACB0); assay: cryo-EM structure; remark: listed apart in the source
cryo-EM structure = biological target: the molecule itself; assay: cryo-EM structure

Molecule: Nc1ncnc2c1ncn2[C@@H]1O[C@H](COP(=O)(O)OP(=O)(O)OP(=O)(O)O)[C@@H](O)[C@H]1O [ATP]
- Km [1]: DnaC follows apparent Michaelis-Menten behavior

Molecule: E. coli DnaB replicative helicase, wild type (from UniProt P0ACB0 1-471) (enzyme)
- stoichiometry N [2]: 6
- stoichiometry N [3]: 6

B1: E. coli DnaC helicase loader, wild type (enzyme, UniProt P0AEF0 1-245, looked up)
chain: MKNVGDLMQRLQKMMPAHIKPAFKTGEELLAWQKEQGAIRSAALERENRAMKMQRTFNRSGIRPLHQNCSFENYRVECEGQMNALSKARQYVEEFDGNIASFIFSGKPGTGKNHLAAAICNELLLRGKSVLIITVADIMSAMKDTFRNSGTSEEQLLNDLSNVDLLVIDEIGVQTESKYEKVIINQIVDRRSSSKRPTGMLTNSNMEEMTKLLGERVMDRMRLGNSLWVIFNWDSYRSRVTGKEY
- stoichiometry N (cryo-EM structure): 6
